Series [1] relates to MCF-7/TAM cells. The series can be described thus: MTT assay, MCF-7/TAM cells. In kind it is cell-based, human. As to conditions: 10 μg/mL pRNA and 1 μM tamoxifen, 48 h. The method, then:
FIGS. 10A-10D. Evidence that pRNA-HER2apt-siMED1 nanoparticles silenced MED1 expression and sensitized two other HER2+ breast cancer cells to tamoxifen treatment. FIG. 10A) Two HER2-overexpressing breast cancer cell lines MCF7/TAM and FIG. 10B) MCF7/HER2, were treated with 10 μg/mL pRNA-HER2apt-siMED1 nanoparticles or scramble control for 48 h, and then MED1 protein level was determined using western blots. FIG. 10C) MCF7/TAM and FIG. 10D) MCF7/HER2 cells were treated with 10 μg/mL pRNA nanoparticles and/or 1 μM tamoxifen (TAM) as indicated for 48 h, and then cell growth was determined using an MTT assay.
Since MED1 has recently been reported to play key roles in tamoxifen resistance of human breast cancer, the combinational effects of pRNA-HER2apt-siMED1 nanoparticles with tamoxifen on the growth and metastatic potential of BT474 cells was examined. […] The combinational effect of pRNA-HER2apt-siMED1 nanoparticles with tamoxifen treatment on two other HER2-overexpressing breast cancer cells MCF-7/HER2 and MCF-7/TAM were also confirmed (FIGS. 10C-D).

A short description of series [2]: Tm value by temperature gradient gel electrophoresis (TGGE) assay. The format is physicochemical. How it is done: Cell culture. Human breast cancer luciferase-overexpressing BT474 and MDA-MB-231 cells were maintained in DMEM medium (Hyclone, Thermo Scientific) supplemented with 10% fetal bovine serum (FBS, Sigma) and 1% penicillin/streptomycin (Corning) at 37° C. in a humidified atmosphere with 5% CO2.^53 • Generation of pRNA nanoparticles. The two strands of pRNA were synthesized with the DNA templates, which were amplified with overlapping primers (Sigma) by PCR methods, using a T7 promoter-controlled in vitro RNA transcription system as previously described^33 (Table 1). […] The hydrodynamic diameter and Tm value of pRNA nanoparticles were determined using dynamic light scattering and TGGE assay, respectively, as previously described.^54 The AFM imaging of the pRNA nanoparticles was performed at the University of Nebraska Medical Center imaging facility as previously reported.^55 Briefly, the pRNA nanoparticles (5 μL) were deposited on APS modified mica ^56 for a total of 2 min of incubation time. […] After washing three times with PBS, the cellular uptake of pRNAs was determined using a BD LSRFortessa™ flow cytometer. • Real-time PCR. […] The expression of MED 1, TFF1, c-Myc, cyclinD1 and MMP-9 was analyzed using GAPDH as the internal reference. • Western blot analyses. […]

Series [3] has as its target T1, recombinant Dicer enzyme (Homo sapiens, UniProt Q9UPY3).
T1 construct: purchased Genlantis
The experiment in a line: Digestion with recombinant Dicer enzyme, siRNA release. The format is biochemical. Conditions: 1 μg pRNA nanoparticles, 37° C., 12 h. The method, then:
FIG. 7A) Six HER2-targeting RNA aptamers were selected from previous literatures, and their secondary structures were predicted using Srna-fold software. FIG. 7B) Six p2 strands containing the six different HER2 RNA aptamers were synthesized and annealed with the same p1 strand to generate six different pRNA-HER2apt-MED1 siRNA nanoparticles, respectively, followed by examination using 8% native PAGE gel electrophoresis. FIG. 7C) BT474 cells were treated with above pRNA nanoparticles for 48 h, and then MED1 protein level was determined by western blotting. […] FIG. 7D) 1 μg pRNA nanoparticles were incubated with recombinant Dicer enzyme (Genlantis) at 37° C. for 12 h, the product was separated by 8% native PAGE gel.
Next, the pRNA nanoparticles were digested with recombinant Dicer enzyme (Genlantis) ^34 to confirm the release of siRNAs as indicated by the generation of 21-23 bp small RNAs after digestion (FIG. 7D).

T1 sequence (Q9UPY3 whole entry): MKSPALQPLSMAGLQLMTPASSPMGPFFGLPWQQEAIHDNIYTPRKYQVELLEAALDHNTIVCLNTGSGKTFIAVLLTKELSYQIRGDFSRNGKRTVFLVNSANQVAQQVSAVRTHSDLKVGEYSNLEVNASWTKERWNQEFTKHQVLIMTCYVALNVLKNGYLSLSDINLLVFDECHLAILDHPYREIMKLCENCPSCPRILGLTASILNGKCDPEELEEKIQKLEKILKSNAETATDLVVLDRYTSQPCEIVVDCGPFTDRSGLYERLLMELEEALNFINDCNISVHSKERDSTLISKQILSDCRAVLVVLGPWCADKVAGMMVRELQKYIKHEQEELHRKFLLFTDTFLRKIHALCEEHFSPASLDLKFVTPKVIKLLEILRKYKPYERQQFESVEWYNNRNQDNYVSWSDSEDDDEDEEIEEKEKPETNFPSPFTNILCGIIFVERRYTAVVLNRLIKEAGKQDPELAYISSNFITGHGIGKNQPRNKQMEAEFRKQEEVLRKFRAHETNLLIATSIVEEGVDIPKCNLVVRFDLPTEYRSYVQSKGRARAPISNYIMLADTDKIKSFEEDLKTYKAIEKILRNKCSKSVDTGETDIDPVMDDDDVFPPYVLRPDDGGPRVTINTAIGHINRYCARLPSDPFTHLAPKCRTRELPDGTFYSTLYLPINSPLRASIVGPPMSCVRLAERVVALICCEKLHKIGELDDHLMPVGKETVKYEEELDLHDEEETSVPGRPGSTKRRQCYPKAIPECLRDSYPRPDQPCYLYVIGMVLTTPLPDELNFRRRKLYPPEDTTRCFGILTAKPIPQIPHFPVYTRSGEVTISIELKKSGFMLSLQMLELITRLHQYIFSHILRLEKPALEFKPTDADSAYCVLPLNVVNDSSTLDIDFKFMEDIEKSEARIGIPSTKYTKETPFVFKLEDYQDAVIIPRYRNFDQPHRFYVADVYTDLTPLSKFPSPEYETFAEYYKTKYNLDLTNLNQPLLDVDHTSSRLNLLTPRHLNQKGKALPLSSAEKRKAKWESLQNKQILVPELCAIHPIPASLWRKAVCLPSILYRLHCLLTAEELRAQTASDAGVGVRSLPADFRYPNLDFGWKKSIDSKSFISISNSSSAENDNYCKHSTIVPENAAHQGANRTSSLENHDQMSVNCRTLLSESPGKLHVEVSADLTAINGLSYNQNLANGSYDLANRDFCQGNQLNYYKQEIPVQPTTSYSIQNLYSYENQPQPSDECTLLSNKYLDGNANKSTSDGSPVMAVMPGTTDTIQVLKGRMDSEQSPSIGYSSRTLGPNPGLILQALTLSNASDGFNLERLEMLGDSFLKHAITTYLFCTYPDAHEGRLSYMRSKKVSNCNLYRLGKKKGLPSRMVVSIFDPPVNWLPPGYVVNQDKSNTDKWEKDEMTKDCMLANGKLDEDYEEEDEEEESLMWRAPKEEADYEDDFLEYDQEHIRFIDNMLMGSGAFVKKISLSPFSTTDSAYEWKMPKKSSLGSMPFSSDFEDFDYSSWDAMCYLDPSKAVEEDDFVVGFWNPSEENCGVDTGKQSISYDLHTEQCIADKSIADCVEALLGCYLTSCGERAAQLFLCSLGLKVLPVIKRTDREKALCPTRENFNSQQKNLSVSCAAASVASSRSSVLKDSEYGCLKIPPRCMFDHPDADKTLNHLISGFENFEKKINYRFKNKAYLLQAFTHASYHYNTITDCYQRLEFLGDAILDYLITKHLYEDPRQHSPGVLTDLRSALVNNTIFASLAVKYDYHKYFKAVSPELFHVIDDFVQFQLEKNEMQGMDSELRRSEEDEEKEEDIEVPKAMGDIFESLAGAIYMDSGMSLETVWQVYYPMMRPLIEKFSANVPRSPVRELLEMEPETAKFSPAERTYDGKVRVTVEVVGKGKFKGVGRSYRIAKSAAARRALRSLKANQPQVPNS

B1: pRNA-HER2apt-siMED1: 3-WJ pRNA nanoparticle bearing a HER2-targeting RNA aptamer and two different MED1 siRNAs; strands p1 SEQ ID NO: 3, p2 SEQ ID NO: 4 (nucleic acid)
chain 1: GGACAGUGAAAGUGAGUCAAAGGAUCAAUCAUGGCCAAAGAUGUUACUUUGAGAGCCUU
chain 2: GGCUCUCAAAGUAACAUCUAAGGCCAUGUGUAUGUGGGGGGAGGACGAUGCGGUCUGCUGUGCUUGAUAUGCCCCAGACGACUCGCCCCCCACAUACUUUGUUGAUCCAAUGACUCACUUUCACUGUCCUU
modifications: 2'-F modification; third strand may lack entry; pRNA-HER2apt-siMED1, p1; pRNA-HER2apt-siMED1, p2
On to B1, for which the “combinational effect with tamoxifen on cell growth” value in series [1] is “confirmed”. Also, in series [2], the Tm value stood at 78±2 °C. Also, the “small RNAs generated after Dicer digestion (release of siRNAs)” value in series [3] was 21-23 bp.

These data come from patent US11110182B2, “Multifunctional RNA nanoparticles and methods for treating cancer and therapeutic resistant cancer” (University of Cincinnati, priority 2016, dated 2021).
